Self-cleavage data for 167 variants are collected here from the RNAGym collection of RNA variant scans (doi:10.7554/elife.80360).

To fix the notation:
B1: HDV Ribozyme (parent)
chain: GGCCGGCAUGGUCCCAGCCUCCUCGCUGGCGCCGGCUGGGCAACAUUCCGAGGGGACCGUCCCCUCGGUAAUGGCGAAUGGGACCCA

The data set covers variants of B1. The data set is described as follows: self-cleavage, relative activity (ratio to wild type); higher = more cleavage; co-transcriptional.
For the variant U20C C36U, the self-cleavage stood at 0.131.

As for C61A A78U, the self-cleavage turned out to be 0.131. G10U G82U: the self-cleavage is 0.248. As for C49G G68C, the self-cleavage came out at 0.458. A43G U47G: the self-cleavage stood at 0.997. Regarding C58G A78C, the self-cleavage came to 0.102. For the variant C48U C84U, the self-cleavage worked out at 0.742.

In the case of C19G U79G, the self-cleavage is 0.222. Take C13A G53C: the self-cleavage is 0.133. Take C21G A87G: the self-cleavage is 0.0462.

As to C33U G59C, the self-cleavage worked out at 1.01. Turning to C32G C85G, the self-cleavage is 0.111. With G39U C58U, the self-cleavage came out at 0.716. To A45C C48A belongs 0.779; to U60C A71C, 1.27; to G1U G82A, 0.241. For C58A C66U, the self-cleavage is 0.917.

Turning to C3A G25A, the self-cleavage came to 0.0658. For U60A C64A, the self-cleavage is 0.878. For C62U U69G, the self-cleavage is 1.07. The result for U12G C41U reads 0.982. Consider C44U U47C, for which the self-cleavage amounted to 0.54. Turning to G52U G53A, the self-cleavage was found to be 0.849.

In the case of U9G C14G, the self-cleavage was found to be 1.2. With U9G C63G, the self-cleavage was found to be 1.17.

For C22A C61U, the self-cleavage was 0.237. For the variant U37C C57G, the self-cleavage is 1.1. As to G1U G73C, the self-cleavage stood at 0.231.

As for G1U G73U, the self-cleavage stood at 0.422. For the variant G1A G39U, the self-cleavage is 0.135. For the variant C4A U27C, the self-cleavage was determined as 0. For C15U G54A, the self-cleavage was found to be 0.776. Regarding C19A C66U, the self-cleavage came to 0.116.

C63A G80C: the self-cleavage came out at 0.332. Turning to G28U C49U, the self-cleavage worked out at 0.0639. Turning to C7G U60A, the self-cleavage amounted to 0.317. On to G2C U9A, for which the self-cleavage was found to be 0.0755. Turning to A77U A87C, the self-cleavage was 0.655. Consider A8U A83C, for which the self-cleavage was 0.

G11U G38A: the self-cleavage stood at 0.0135. The result for A42C U79C reads 0.124. Consider U9G G38A, for which the self-cleavage worked out at 0.156. Regarding A71C G73A, the self-cleavage amounted to 0.45. Consider C61A A83G, for which the self-cleavage came out at 0.997. Consider U23A G55U, for which the self-cleavage is 0.976. Regarding C36U A45G, the self-cleavage turned out to be 0.522. In the case of G50A, the self-cleavage came to 0.98.

In the case of U79A C85G, the self-cleavage was determined as 0.997.

As for C13G C24A, the self-cleavage was found to be 0.0594. As for A43C G50C, the self-cleavage stood at 0.284. The result for A70U U79G reads 0.617.

For the variant G50A C57G, the self-cleavage came out at 0.886. As to A56C C66A, the self-cleavage was found to be 1.21. Regarding G25A G34A, the self-cleavage came to 0.0863. With C18G C26A, the self-cleavage is 0.175. With U23A C57G, the self-cleavage is 1.06.

Consider C44G G50C, for which the self-cleavage was determined as 0.739. In the case of C7U G50U, the self-cleavage was found to be 0.864.

As to G5U, the self-cleavage stood at 0.469. As for A16C U37C, the self-cleavage amounted to 0.831. As for G1C C19U, the self-cleavage came to 0. Turning to C4G C64G, the self-cleavage was 0.259.

For the variant C32U C44U, the self-cleavage is 0.564.

With A45G U72C, the self-cleavage was 0.87. On to C3A G35C, for which the self-cleavage stood at 0.604. Consider C57U U72C, for which the self-cleavage was 0.566. Regarding A16G U47C, the self-cleavage stood at 0.962.

Consider C32A A45C, for which the self-cleavage came out at 0.0875.

As to G1C C7U, the self-cleavage is 0.0475. As for G73U C85U, the self-cleavage was determined as 0.458. To C3A U46C belongs 0.173; to C4G U37C, 0.375. On to C13U A45C, for which the self-cleavage was found to be 0.365. To U47C A83U belongs 0.378; to G31C C63A, 0.344. The result for G6A G50U reads 0.708; that for A43C A70U, 0.322; that for U12G G34A, 0.0791.

Turning to G38U G59A, the self-cleavage was 0.181. Turning to G11C G28C, the self-cleavage turned out to be 0. In the case of C15U A78C, the self-cleavage stood at 0.166. On to C32G C84U, for which the self-cleavage was determined as 0.0354.

As to A70U U72G, the self-cleavage was found to be 0.554. On to C15G G34U, for which the self-cleavage worked out at 0.19. To U37G belongs 0.131; to G34U A83U, 0.173; to G6C U65C, 0.277.

G34A C75U: the self-cleavage was 0.086.

As for U60C G67C, the self-cleavage was 0.554. To C36U G76A belongs 0.697.

In the case of G35C G82A, the self-cleavage amounted to 0.147. As to A56G A78U, the self-cleavage is 0.181. As for U20C G34C, the self-cleavage is 0. As for U12C C33A, the self-cleavage was found to be 0.0386. The result for C22U C84A reads 0.408; that for G11A C57U, 0.256; that for G11A C57A, 0.45. G6C G73U: the self-cleavage stood at 0.0923. The result for C32U G52C reads 0.751; that for A16C A70C, 0.731. The result for C49G G73A reads 0.197. Consider G35C U47C, for which the self-cleavage came to 0.237. G2C G38U: the self-cleavage was determined as 0.0764. With G31C G34U, the self-cleavage came out at 0.191. For A71U C85G, the self-cleavage was determined as 0.587. A43G G76U: the self-cleavage was 0.892.

Turning to C24U G76U, the self-cleavage came to 0.917. In the case of C26A G52C, the self-cleavage amounted to 0.872. For C44G G54C, the self-cleavage amounted to 0.831. G2U U69G: the self-cleavage stood at 0.0475. Take G25U U60G: the self-cleavage is 0.229.

Turning to G5C G40U, the self-cleavage was found to be 0.104. Take G53A G54A: the self-cleavage was 0.896.

In the case of C75U G80U, the self-cleavage came to 0.178. With C62G A83C, the self-cleavage was found to be 0.253. Turning to G29C A43G, the self-cleavage worked out at 0.0692. To G39A C61U belongs 0.54; to A8C A87U, 0.847. The result for C15A G82C reads 0.415; that for C4G U65G, 0.231. Turning to C13A G28U, the self-cleavage is 0.172. Consider G38C C61A, for which the self-cleavage was determined as 0.218. For the variant G28A C48U, the self-cleavage is 0.0997.

With C14U C84U, the self-cleavage is 0.845. As for C30A A43U, the self-cleavage was found to be 0.0692. Consider A51U G54U, for which the self-cleavage is 1.02.

Consider C30G A70G, for which the self-cleavage worked out at 0.0739. The result for G31A G34A reads 0.0934; that for G73C A87C, 0.592; that for C3G U20G, 0. On to G54A, for which the self-cleavage was determined as 0.961. In the case of U27A G54A, the self-cleavage came out at 0.961. With C41A G80C, the self-cleavage worked out at 0.164. To U12C C49U belongs 0.166.

Consider A56U U60C, for which the self-cleavage was 1.13. As to G1U G35U, the self-cleavage came out at 0.288. Regarding G28A U79C, the self-cleavage came out at 0.0542. For A45U G76A, the self-cleavage is 0.578. As for G54C U60C, the self-cleavage is 1.22. A16G C44G: the self-cleavage was found to be 0.767.

In the case of G5U C14U, the self-cleavage was determined as 0.612. For the variant G31C G39U, the self-cleavage is 0.277. In the case of C14A C21U, the self-cleavage worked out at 0.151. Consider C3A C7G, for which the self-cleavage worked out at 0.0223. Regarding G50U G68U, the self-cleavage came out at 0.576.

For the variant G35U C86A, the self-cleavage worked out at 0.35.

As to G52U G68A, the self-cleavage is 0.517. Take U23G G76C: the self-cleavage is 0.684. To U37A C84U belongs 0.116; to C4G U20C, 0.0791; to C24A C75U, 0.169.

For the variant G35U C41G, the self-cleavage is 0.188. With C3G C86U, the self-cleavage was 0.885. To G59A C86A belongs 0.842; to U20G G76U, 0.388.

With U12G U20A, the self-cleavage is 0.0573. To G28C G50A belongs 0.151; to U27C A77U, 0.262; to G5A A87C, 0.124. With C44A A83G, the self-cleavage is 0.443. Turning to C36U A87G, the self-cleavage is 0.674. Take C66U U79C: the self-cleavage is 0.571.

Take G29A A77C: the self-cleavage was 0.111. On to C3U G17U, for which the self-cleavage stood at 0.193. Turning to C3U C26A, the self-cleavage was found to be 0.923.

Regarding G17A A51G, the self-cleavage is 0.782. Regarding C7A U9G, the self-cleavage was determined as 0.396.
